US20050008648A1 (BOARD OF TRUSTEES OF THE UNIVERSITY OF ILLINOIS, published 2005)

Target: the molecule itself
Assay: X-ray crystal structure
Source text: Crystals were transferred to a cryoprotectant solution that in the case of the citrate condition was made of mineral oil (Sigma) while for the crystals grown in PEG it was composed of the mother liquor and 10% (w/v) xylitol-10% (w/v) sucrose. Once the crystals were mounted in loops, they were frozen by directly immersing them in liquid nitrogen. X-ray data were collected at the Advanced Photon Source using the BioCARS beamlines BM-C and BM-D, and the SERCAT beamline ID-22.
Data for the MAD data set were collected to 2.3 Å resolution. A partially built model into the MAD electron density was used to solve the tetragonal crystals. […] The ligands were refined without conformational torsion-angle restraints in order to prevent bias towards a particular ring conformation for the sugars.

B1: Human deoxycytidine kinase (dCK) (enzyme)
chain: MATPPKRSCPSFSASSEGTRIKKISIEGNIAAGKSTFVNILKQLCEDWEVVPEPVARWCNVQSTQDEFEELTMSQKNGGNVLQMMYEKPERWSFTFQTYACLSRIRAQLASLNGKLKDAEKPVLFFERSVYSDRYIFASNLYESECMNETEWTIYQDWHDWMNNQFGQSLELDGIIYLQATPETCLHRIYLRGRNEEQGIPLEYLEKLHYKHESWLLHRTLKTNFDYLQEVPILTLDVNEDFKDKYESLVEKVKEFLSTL
notes: Made in E. coli with a His-tag that was cleaved by thrombin; The selenomethionine-substituted protein was used for MAD phasing; Residues 1 to 19 were not seen in the electron density; Crystallized with dC, ara-C or gemcitabine and ADP; also called human dCK; wild type dCK
binding result: binds
